Laboratory results published in publication PMC6415948.

Tests used:
Experiment in all cases: SPR
[1] = target: Human IgG1 Fc, afucosylated, mixed N-glycans (G0, G1 and G2) (human)
[2] = target: Human IgG1 Fc, fucosylated, mixed N-glycans (predominantly G0F/G1F/G2F) (human)
[3] = target: Human IgG1 Fc, G0F N-glycan (agalactosylated, core-fucosylated) (human)
[4] = target: Human IgG1 Fc, G0 N-glycan (agalactosylated, afucosylated) (human)
[5] = target: Human IgG1 Fc, G2F N-glycan (digalactosylated, core-fucosylated) (human)

Kd [1] [nM] | Kd [2] [nM] | Kd [3] [nM] | Kd [4] [nM] | Kd [5] [nM] | Substance
38 | 245 | – | – | – | CD16a, wild type, complex-type glycoform (receptor)
2.5 | 57 | 18 | 2.4 | 9.9 | CD16a (Fc γ receptor IIIa), wild type, Man5 glycoform
– | – | 3.7 | 1.7 | 2 | CD16a, wild type, following treatment with Endoglycosidase F1 (N-glycans truncated to a single (1)GlcNAc) (receptor)
– | – | 360 | – | – | CD16a N38Q/N45Q/N74Q/N169Q, Man5 glycoform (receptor)
– | – | 2.9 | 1.3 | 1.6 | CD16a N38Q/N74Q/N169Q following treatment with Endoglycosidase F1 (N-glycans truncated to a single (1)GlcNAc) (receptor)
4 | 64 | – | – | – | CD16a, wild type, Man9 glycoform (receptor)
